Results as given in the supplement of paper PMC10065799, “High-throughput profiling of sequence recognition by tyrosine kinases and SH2 domains using bacterial peptide display” (eLife, 2023).
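Further: 11-residue human phosphosite peptides and single-mutation variants displayed on the E. coli surface, counted by deep sequencing, each peptide's frequency after selection divided by its frequency in the unselected input library; frequency after pTyr selection over input frequency; kinase dosed for 20-30% of maximal phosphorylation in three min.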

These sequences were tested against MERTK (UniProt Q12866) (assay: phosphorylation enrichment, bacterial display (enrichment ratio); higher = better substrate or ligand; peptides without Tyr show the background).
MERTK, sequence (Q12866 whole entry, looked up): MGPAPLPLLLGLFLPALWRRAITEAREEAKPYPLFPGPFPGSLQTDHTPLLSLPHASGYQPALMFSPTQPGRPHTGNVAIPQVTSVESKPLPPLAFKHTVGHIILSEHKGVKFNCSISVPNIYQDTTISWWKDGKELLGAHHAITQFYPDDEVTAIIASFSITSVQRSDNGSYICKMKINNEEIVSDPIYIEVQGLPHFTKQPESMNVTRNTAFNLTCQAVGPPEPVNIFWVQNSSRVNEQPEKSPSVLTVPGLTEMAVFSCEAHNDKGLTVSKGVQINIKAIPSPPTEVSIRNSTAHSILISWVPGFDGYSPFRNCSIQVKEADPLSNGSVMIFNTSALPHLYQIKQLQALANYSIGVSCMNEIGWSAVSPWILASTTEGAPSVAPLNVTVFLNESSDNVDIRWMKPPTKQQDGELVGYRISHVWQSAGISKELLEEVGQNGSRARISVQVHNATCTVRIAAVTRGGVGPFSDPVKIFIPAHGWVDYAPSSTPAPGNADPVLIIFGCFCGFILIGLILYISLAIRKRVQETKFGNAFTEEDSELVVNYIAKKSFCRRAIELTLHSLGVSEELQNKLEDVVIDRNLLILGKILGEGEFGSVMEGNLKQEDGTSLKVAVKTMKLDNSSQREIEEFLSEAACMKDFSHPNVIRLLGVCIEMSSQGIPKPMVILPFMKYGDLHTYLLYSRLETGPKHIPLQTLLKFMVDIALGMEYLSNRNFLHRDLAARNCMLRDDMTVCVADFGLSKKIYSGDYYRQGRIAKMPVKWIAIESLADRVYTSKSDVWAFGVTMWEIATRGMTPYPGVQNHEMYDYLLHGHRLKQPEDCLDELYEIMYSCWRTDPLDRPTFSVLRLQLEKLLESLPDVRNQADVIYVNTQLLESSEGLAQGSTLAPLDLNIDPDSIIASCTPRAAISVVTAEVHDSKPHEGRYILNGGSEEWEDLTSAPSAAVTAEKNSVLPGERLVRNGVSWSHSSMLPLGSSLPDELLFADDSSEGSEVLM
PPGRSYSPFDF [TNS1_Y793_YF] showed a phosphorylation enrichment of 0.598. CTTIHYNFICN [TP53_Y234_M237I_YF] was tested, and the phosphorylation enrichment was 0.439. Work on INSLKYAFNVS [EIF2B5_Y583_I587V_YF] yielded a phosphorylation enrichment of 0.447. PFDAEYGGGGG [AKR1B10_Y316_N313D] was tested, and the phosphorylation enrichment was 0.783. QHVPDYRQNVF [PCDHGA1_Y890_YF] gave a phosphorylation enrichment of 0.54. Work on DFFDLYGGEKF [PTPN11_Y66_YF] yielded a phosphorylation enrichment of 0.441. Sequence VGTKRYMALEV [ACVRL1_Y375_P378L] has a phosphorylation enrichment of 0.448. For NLFIEYPTGSG [IRF2BPL_Y423_K418N], the phosphorylation enrichment was 0.519. In the case of MPIPMYDGSQA [CARMIL1_Y637_A639G], the phosphorylation enrichment is reported as 0.447. AIFWRYSKFFD [SH3PXD2B_Y45_R43W_YF] was tested, and the phosphorylation enrichment was 0.323. For RGERPYGGGGG [FUS_Y526_R522G], the phosphorylation enrichment was 0.48. LSVEIHDRREF [ITGB7_Y753_Y753H_YF] showed a phosphorylation enrichment of 0.558. Sequence NRDNTYNRVSE [FGA_Y127] has a phosphorylation enrichment of 0.329. In the case of EGQKIYIDDNN [PIP4K2A_Y246], the phosphorylation enrichment is reported as 0.412. GGKYSYLKVGH [GRM3_Y480] gave a phosphorylation enrichment of 0.513. PTATSYNPNLA [GABRA1_Y375_T376N] showed a phosphorylation enrichment of 1.06. In the case of RAILLYEFVGK [NATD1_Y45_V42I_YF], the phosphorylation enrichment is reported as 24.9. Sequence DAASNYARGHF [TUBA3E_Y103_YF] has a phosphorylation enrichment of 0.465. RKTAKYLLKGE [CDH5_Y82_N79T] showed a phosphorylation enrichment of 0.832. For FVSLIYTNFEA [GSTP1_Y109_I105V_YF], the phosphorylation enrichment was 5.37. AKFPFYEKNKK [FOXL2_Y91] showed a phosphorylation enrichment of 0.436. With FYRNVYHLASV [RBL1_Y796_K794N] the phosphorylation enrichment was 0.371. With EWLRRHLENGK [HLA-A_Y195_Y195H] the phosphorylation enrichment was 0.34. Sequence SNMPSYSGHFT [GRIN2A_Y1224_T1223S] has a phosphorylation enrichment of 0.411. AAETTYDKILK [GDNF_Y156] was tested, and the phosphorylation enrichment was 0.376. Work on STTSDYQWDVS [MTDH_Y364] yielded a phosphorylation enrichment of 0.387. For CTTIHYDYMCN [TP53_Y234_N235D], the phosphorylation enrichment was 0.591. With LQTFRYHGHSM [PDHA1_Y289_YF] the phosphorylation enrichment was 0.716. For TSGVVYKARNK [CDK2_Y19_Y15S], the phosphorylation enrichment was 0.479. ADKAAYLQSMN [MYH2_Y389_L393M] showed a phosphorylation enrichment of 0.366. SVTCTYSPALI [TP53_Y126_N131I] showed a phosphorylation enrichment of 0.602. VGTKRYMAPDV [ACVRL1_Y375_E379D] showed a phosphorylation enrichment of 0.277. For YDCGMYSHLQG [LGR4_Y848], the phosphorylation enrichment was 7.03.

Each sequence was assayed against Jak2 (UniProt O60674) in the same assay as above.
Jak2, sequence (O60674 whole entry, looked up): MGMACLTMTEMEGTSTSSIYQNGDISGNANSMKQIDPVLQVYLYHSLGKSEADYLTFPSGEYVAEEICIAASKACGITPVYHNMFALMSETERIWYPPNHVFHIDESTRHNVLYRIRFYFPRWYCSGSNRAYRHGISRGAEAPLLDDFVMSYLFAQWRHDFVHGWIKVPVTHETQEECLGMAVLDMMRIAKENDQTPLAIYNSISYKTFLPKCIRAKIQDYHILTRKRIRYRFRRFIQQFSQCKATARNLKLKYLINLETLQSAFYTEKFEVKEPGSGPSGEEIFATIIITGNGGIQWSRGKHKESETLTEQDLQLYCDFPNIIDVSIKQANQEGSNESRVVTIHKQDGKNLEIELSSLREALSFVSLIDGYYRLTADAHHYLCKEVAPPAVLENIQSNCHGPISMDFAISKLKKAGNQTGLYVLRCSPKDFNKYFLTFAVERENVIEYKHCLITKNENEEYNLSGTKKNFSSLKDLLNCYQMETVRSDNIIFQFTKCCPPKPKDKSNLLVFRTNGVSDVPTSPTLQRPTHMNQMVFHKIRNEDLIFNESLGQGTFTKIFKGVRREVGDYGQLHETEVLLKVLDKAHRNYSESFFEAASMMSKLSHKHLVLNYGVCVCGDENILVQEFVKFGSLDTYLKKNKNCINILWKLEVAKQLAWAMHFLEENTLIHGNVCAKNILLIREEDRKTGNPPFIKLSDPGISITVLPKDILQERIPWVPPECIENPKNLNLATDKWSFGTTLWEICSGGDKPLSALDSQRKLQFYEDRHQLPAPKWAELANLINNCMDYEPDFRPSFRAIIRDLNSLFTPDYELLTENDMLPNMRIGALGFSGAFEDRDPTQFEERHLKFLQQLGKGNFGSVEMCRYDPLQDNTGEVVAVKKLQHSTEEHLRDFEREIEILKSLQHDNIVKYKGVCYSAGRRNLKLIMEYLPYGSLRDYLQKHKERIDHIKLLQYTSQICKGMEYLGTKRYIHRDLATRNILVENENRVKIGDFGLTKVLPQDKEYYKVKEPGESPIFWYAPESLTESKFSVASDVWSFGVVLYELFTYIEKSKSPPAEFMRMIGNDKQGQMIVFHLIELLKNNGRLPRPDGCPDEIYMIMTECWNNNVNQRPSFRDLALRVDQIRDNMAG
Sequence PPGRSYSPFDF [TNS1_Y793_YF] has a phosphorylation enrichment of 0.843. In the case of CTTIHYNFICN [TP53_Y234_M237I_YF], the phosphorylation enrichment is reported as 1.25. INSLKYAFNVS [EIF2B5_Y583_I587V_YF] showed a phosphorylation enrichment of 0.771. In the case of PFDAEYGGGGG [AKR1B10_Y316_N313D], the phosphorylation enrichment is reported as 1.66. QHVPDYRQNVF [PCDHGA1_Y890_YF] was tested, and the phosphorylation enrichment was 0.991. For DFFDLYGGEKF [PTPN11_Y66_YF], the phosphorylation enrichment was 1.06. VGTKRYMALEV [ACVRL1_Y375_P378L] showed a phosphorylation enrichment of 0.557. NLFIEYPTGSG [IRF2BPL_Y423_K418N] gave a phosphorylation enrichment of 0.828. With MPIPMYDGSQA [CARMIL1_Y637_A639G] the phosphorylation enrichment was 0.963. For AIFWRYSKFFD [SH3PXD2B_Y45_R43W_YF], the phosphorylation enrichment was 1.16. In the case of RGERPYGGGGG [FUS_Y526_R522G], the phosphorylation enrichment is reported as 0.65. LSVEIHDRREF [ITGB7_Y753_Y753H_YF] showed a phosphorylation enrichment of 1.3. Work on NRDNTYNRVSE [FGA_Y127] yielded a phosphorylation enrichment of 0.678. Work on EGQKIYIDDNN [PIP4K2A_Y246] yielded a phosphorylation enrichment of 0.984. With GGKYSYLKVGH [GRM3_Y480] the phosphorylation enrichment was 0.604. PTATSYNPNLA [GABRA1_Y375_T376N] showed a phosphorylation enrichment of 1.55. With RAILLYEFVGK [NATD1_Y45_V42I_YF] the phosphorylation enrichment was 3.76. Sequence DAASNYARGHF [TUBA3E_Y103_YF] has a phosphorylation enrichment of 0.604. In the case of RKTAKYLLKGE [CDH5_Y82_N79T], the phosphorylation enrichment is reported as 0.628. FVSLIYTNFEA [GSTP1_Y109_I105V_YF] was tested, and the phosphorylation enrichment was 1.18. For AKFPFYEKNKK [FOXL2_Y91], the phosphorylation enrichment was 0.655. In the case of FYRNVYHLASV [RBL1_Y796_K794N], the phosphorylation enrichment is reported as 0.484. EWLRRHLENGK [HLA-A_Y195_Y195H] gave a phosphorylation enrichment of 0.824. SNMPSYSGHFT [GRIN2A_Y1224_T1223S] gave a phosphorylation enrichment of 0.614. Sequence AAETTYDKILK [GDNF_Y156] has a phosphorylation enrichment of 0.888. STTSDYQWDVS [MTDH_Y364] gave a phosphorylation enrichment of 1.05. Work on CTTIHYDYMCN [TP53_Y234_N235D] yielded a phosphorylation enrichment of 1.03. Work on LQTFRYHGHSM [PDHA1_Y289_YF] yielded a phosphorylation enrichment of 0.876. With TSGVVYKARNK [CDK2_Y19_Y15S] the phosphorylation enrichment was 0.427. Work on ADKAAYLQSMN [MYH2_Y389_L393M] yielded a phosphorylation enrichment of 0.609. Sequence SVTCTYSPALI [TP53_Y126_N131I] has a phosphorylation enrichment of 1.52. For VGTKRYMAPDV [ACVRL1_Y375_E379D], the phosphorylation enrichment was 0.415. In the case of YDCGMYSHLQG [LGR4_Y848], the phosphorylation enrichment is reported as 0.944.

Each sequence was assayed on Fer (mouse) in the same assay as above.
In the case of PPGRSYSPFDF [TNS1_Y793_YF], the phosphorylation enrichment is reported as 1.1. CTTIHYNFICN [TP53_Y234_M237I_YF] gave a phosphorylation enrichment of 0.672. INSLKYAFNVS [EIF2B5_Y583_I587V_YF] showed a phosphorylation enrichment of 0.452. Work on PFDAEYGGGGG [AKR1B10_Y316_N313D] yielded a phosphorylation enrichment of 0.784. Work on QHVPDYRQNVF [PCDHGA1_Y890_YF] yielded a phosphorylation enrichment of 0.578. DFFDLYGGEKF [PTPN11_Y66_YF] was tested, and the phosphorylation enrichment was 0.682. VGTKRYMALEV [ACVRL1_Y375_P378L] gave a phosphorylation enrichment of 0.418. NLFIEYPTGSG [IRF2BPL_Y423_K418N] gave a phosphorylation enrichment of 0.639. MPIPMYDGSQA [CARMIL1_Y637_A639G] showed a phosphorylation enrichment of 0.402. AIFWRYSKFFD [SH3PXD2B_Y45_R43W_YF] gave a phosphorylation enrichment of 0.49. RGERPYGGGGG [FUS_Y526_R522G] showed a phosphorylation enrichment of 0.337. With LSVEIHDRREF [ITGB7_Y753_Y753H_YF] the phosphorylation enrichment was 0.795. With NRDNTYNRVSE [FGA_Y127] the phosphorylation enrichment was 0.395. EGQKIYIDDNN [PIP4K2A_Y246] was tested, and the phosphorylation enrichment was 0.484. In the case of GGKYSYLKVGH [GRM3_Y480], the phosphorylation enrichment is reported as 0.503. PTATSYNPNLA [GABRA1_Y375_T376N] was tested, and the phosphorylation enrichment was 0.824. RAILLYEFVGK [NATD1_Y45_V42I_YF] gave a phosphorylation enrichment of 32.5. DAASNYARGHF [TUBA3E_Y103_YF] gave a phosphorylation enrichment of 0.403. Sequence RKTAKYLLKGE [CDH5_Y82_N79T] has a phosphorylation enrichment of 0.878. FVSLIYTNFEA [GSTP1_Y109_I105V_YF] gave a phosphorylation enrichment of 3.18. AKFPFYEKNKK [FOXL2_Y91] showed a phosphorylation enrichment of 0.304. FYRNVYHLASV [RBL1_Y796_K794N] was tested, and the phosphorylation enrichment was 0.417. Sequence EWLRRHLENGK [HLA-A_Y195_Y195H] has a phosphorylation enrichment of 0.34. SNMPSYSGHFT [GRIN2A_Y1224_T1223S] gave a phosphorylation enrichment of 1.6. In the case of AAETTYDKILK [GDNF_Y156], the phosphorylation enrichment is reported as 0.474. Sequence STTSDYQWDVS [MTDH_Y364] has a phosphorylation enrichment of 0.476. In the case of CTTIHYDYMCN [TP53_Y234_N235D], the phosphorylation enrichment is reported as 1.17. LQTFRYHGHSM [PDHA1_Y289_YF] was tested, and the phosphorylation enrichment was 0.592. Work on TSGVVYKARNK [CDK2_Y19_Y15S] yielded a phosphorylation enrichment of 0.519. ADKAAYLQSMN [MYH2_Y389_L393M] showed a phosphorylation enrichment of 0.411. For SVTCTYSPALI [TP53_Y126_N131I], the phosphorylation enrichment was 1.09. In the case of VGTKRYMAPDV [ACVRL1_Y375_E379D], the phosphorylation enrichment is reported as 0.35. In the case of YDCGMYSHLQG [LGR4_Y848], the phosphorylation enrichment is reported as 2.87.

Each sequence was assayed against Hck (UniProt P08631) in the same assay as above.
Hck, sequence (P08631 whole entry, looked up): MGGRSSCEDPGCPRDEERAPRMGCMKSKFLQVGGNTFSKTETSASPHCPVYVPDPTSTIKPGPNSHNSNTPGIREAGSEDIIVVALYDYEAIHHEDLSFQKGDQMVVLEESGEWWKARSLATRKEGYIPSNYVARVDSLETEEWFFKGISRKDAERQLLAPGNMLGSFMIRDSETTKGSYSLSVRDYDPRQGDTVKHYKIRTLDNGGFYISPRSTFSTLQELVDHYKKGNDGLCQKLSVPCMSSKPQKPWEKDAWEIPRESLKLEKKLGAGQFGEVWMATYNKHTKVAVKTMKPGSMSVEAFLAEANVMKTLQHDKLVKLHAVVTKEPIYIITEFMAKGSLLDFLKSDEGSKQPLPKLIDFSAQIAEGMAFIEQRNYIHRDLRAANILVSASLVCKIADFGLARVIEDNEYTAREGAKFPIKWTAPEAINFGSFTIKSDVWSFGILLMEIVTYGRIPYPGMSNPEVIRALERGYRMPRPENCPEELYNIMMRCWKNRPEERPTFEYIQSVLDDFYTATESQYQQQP
Work on PPGRSYSPFDF [TNS1_Y793_YF] yielded a phosphorylation enrichment of 0.6. Sequence CTTIHYNFICN [TP53_Y234_M237I_YF] has a phosphorylation enrichment of 0.454. INSLKYAFNVS [EIF2B5_Y583_I587V_YF] gave a phosphorylation enrichment of 0.51. With PFDAEYGGGGG [AKR1B10_Y316_N313D] the phosphorylation enrichment was 1.14. With QHVPDYRQNVF [PCDHGA1_Y890_YF] the phosphorylation enrichment was 0.585. DFFDLYGGEKF [PTPN11_Y66_YF] gave a phosphorylation enrichment of 3.08. Sequence VGTKRYMALEV [ACVRL1_Y375_P378L] has a phosphorylation enrichment of 0.458. Work on NLFIEYPTGSG [IRF2BPL_Y423_K418N] yielded a phosphorylation enrichment of 0.497. MPIPMYDGSQA [CARMIL1_Y637_A639G] showed a phosphorylation enrichment of 0.53. Work on AIFWRYSKFFD [SH3PXD2B_Y45_R43W_YF] yielded a phosphorylation enrichment of 0.41. Sequence RGERPYGGGGG [FUS_Y526_R522G] has a phosphorylation enrichment of 0.444. In the case of LSVEIHDRREF [ITGB7_Y753_Y753H_YF], the phosphorylation enrichment is reported as 0.814. Work on NRDNTYNRVSE [FGA_Y127] yielded a phosphorylation enrichment of 0.457. EGQKIYIDDNN [PIP4K2A_Y246] showed a phosphorylation enrichment of 0.548. With GGKYSYLKVGH [GRM3_Y480] the phosphorylation enrichment was 0.388. Sequence PTATSYNPNLA [GABRA1_Y375_T376N] has a phosphorylation enrichment of 0.621. RAILLYEFVGK [NATD1_Y45_V42I_YF] showed a phosphorylation enrichment of 19.9. For DAASNYARGHF [TUBA3E_Y103_YF], the phosphorylation enrichment was 0.47. Work on RKTAKYLLKGE [CDH5_Y82_N79T] yielded a phosphorylation enrichment of 0.672. FVSLIYTNFEA [GSTP1_Y109_I105V_YF] showed a phosphorylation enrichment of 3.31. For AKFPFYEKNKK [FOXL2_Y91], the phosphorylation enrichment was 0.443. With FYRNVYHLASV [RBL1_Y796_K794N] the phosphorylation enrichment was 0.648. For EWLRRHLENGK [HLA-A_Y195_Y195H], the phosphorylation enrichment was 0.409. In the case of SNMPSYSGHFT [GRIN2A_Y1224_T1223S], the phosphorylation enrichment is reported as 0.425. AAETTYDKILK [GDNF_Y156] showed a phosphorylation enrichment of 1.36. STTSDYQWDVS [MTDH_Y364] gave a phosphorylation enrichment of 0.508. CTTIHYDYMCN [TP53_Y234_N235D] showed a phosphorylation enrichment of 0.635. Work on LQTFRYHGHSM [PDHA1_Y289_YF] yielded a phosphorylation enrichment of 0.616. With TSGVVYKARNK [CDK2_Y19_Y15S] the phosphorylation enrichment was 0.462. Work on ADKAAYLQSMN [MYH2_Y389_L393M] yielded a phosphorylation enrichment of 0.436. With SVTCTYSPALI [TP53_Y126_N131I] the phosphorylation enrichment was 0.804. For VGTKRYMAPDV [ACVRL1_Y375_E379D], the phosphorylation enrichment was 0.334. For YDCGMYSHLQG [LGR4_Y848], the phosphorylation enrichment was 5.59.
